Assay: soluble on expression in E. coli; label from the status in PepcDB or PDB records

| Sequence | soluble on expression in E. coli |
| --- | --- |
| MGSDKIHHHHHHMRTIDTIFSSEVNVPLYHYTGIGSLLGMANCKSVWASSISYMNDSKEIVHACETVENVLRARIVFGQKDEEHRFLEQLIEWTKSCSKVAHTMFVFSLSEKPSLLSQWRSYTPHGKGVSLEFSPNKVNEIARFTGMRIAKCVYDDREQEEIISILVEKLLVNFRQELPAMDITDKPPSQCYYDFINQYTSDIYQVLAIIKHGAFEEECEWRLISPHIPKFGDPRLKFREGASMLVPYIELPLGDKPFFRKIILGPSQHQNLNMSGLSMFMSNQGISNELLNCQIPYREW | not soluble |
| MSLKITAARVIITCPGRNFVTLKIETDQGVYGIGDATLNGRELSVVAYLAGTRRALPHRHGPAPHRGHLAVCLSRAYWRAPARLTMRAIAAVDMALWDIKAKMAGMPLYQLLGGRSRDGIMVYGHANGSDIAETVEAVGHYIDMGYKAIRAQTGVPGIKDAYGVGRGKLYYEPADASLPSVTGWDTRKALNYVPKLFEELRKTYGFDHHLLHDGHHRYTPQEAANLGKMLEPYQLFWLEDCTPAENQEAFRLVRQHTVTPLAVGEIFNTIWDAKDLIQNQLIDYIRATVVGAGGLTHLRRIADLASLYQVRTGCHGATDLSPVTMGCALHFDTWVPNFGIQEYMRHTEETDAVFPHDYWFEKGELFVGETPGHGVDIDEELAAKYPYKPAYLPVARLEDGTMWNWEGHHHHHH | not soluble |
| MSLEFANFDSDLQYFLFQHIAVLLTANTKYRRALLLYGGAKNGKSVFINLVRSFFYSEDIVSKALNELQGRFDKESLVGKKLMASDEIGESRIQEKIVNDLKKLVSVEPVHVDRKGKTQVETTLDLKLAFGTNARLNFPSAHAKALERRIAVIPCEYYVEKADPDLIEKLQDEKKEIFLYLMYVYKQIVKNDIEYLQNDRVTEISHDWLNFGYEFVSSKSASIANQKACINLLRKLIEIKPGSRIKVSELNKVINEEIKVSSQVIKQLIQANFDTQTKLYNGYDYWIDLGWKEADKKEIHDISKKDNIISLDKNENITDDETLDEENLDFDWEDFDDEGHHHHHH | not soluble |
| MKYSSIFSMLSFFILFACNETAVYGSDENIIFMRYVEKLHLDKYSVKNTVKTETMAIQLAEIYVRYRYGERIAEEEKPYLITELPDSWVVEGAKLPYEVAGGVFIIEINKKNGCVLNFLHSKLEHHHHHH | not soluble |
| MRILNVSLLVLASSLVAFVECGRDFYKILGVAKNANANQIKKAYRKLAKELHPDRNQDDEMANEKFQDLSSAYEVLSDKEKRAMYDRHGEEGVAKMGGGGGGGHDPFSSFFGDFFGGGGGHGGEEGTPKGADVTIDLFVTLEEVYNGHFVEIKRKKAVYKQTSGTRQCNCRHEMRTEQMGQGRFQMFQVKVCDECPNVKLVQENKVLEVEVEVGADNGHQQIFHGEGEPHIEGDPGDLKFKIRIQKHPR | not soluble |
| MAHHHHHHMKELVSSFLNNLSQVSSELSCCKNKKFHVDNVSLCGIEDVLHNRDRSSLIDKEKINTLMELYKNENIYESYEEYDIDKYEKIKNNNILKNMGGNKLNVCNACLFCNNNNSQNHMNKNKNVSENINNVIDLDDEILIANFPFNSLRDVENLTYTNSEHTLNNKEYSYIKNSIDLDFDQQIKNQKKNNNSKNSSHLYNEIVKEGEYDNDDSPNFDEDSSQFKFSVLNNIKNNIHNTKDELTNNYNIIKNTLNQDYEKNIDQKEKHDIIVDNMVNSVDYQNDMDTNIKTKKKKKNQAYSNFYAKSDLPSSNIDEGSCKGCKASDTSSEFFSVASGMKPNN | not soluble |
| LQEVGSTFNIEVSILKDQATIMIDTTGSSLFKRGYRVQKGGAPIKENMAAAILALSNWFPDKPLVDPTCGSGTFCIEAAMIGMNIAPGFNRSFAFEEWSWVDKDMVQQVRDDAEQEANYEIELDISGFDIDGRMIEIAKSNAEEAGLSDVITFKQMRLQDFRTDKVNGVVISNPPYGERLLDDKAVDILYNEMGQTFAPLKTWSKFILTSDELFELKYGQKADKKRKLYNGTLKVDLYQFYGERVKRHLI | not soluble |
| MKGTQMLALNKKCWDIVAPYFFQVDCLPKYGPYTASEDEIHLFDSIKGKKVLDIGCGSGHSLQYMAEHGAEELWGLDLSSTQIETAHETLQSWNPKLICGAMEEERDIPKGYFDIVYSIYALGWTSDLRKTLELIYSYVKPGGSFIFSWEHPVYSNLMYGTEEIAFSSSYHEETPITFETFKGEDVQATLYKRKMSTYINELNRVGFTIERIEEPEPSSSFDEKLAEPSTKYYSLHKARMVPTTFIIKARKLEHHHHHH | soluble |
| MGSDKIHHHHHHMDPVLELEAVSKCFQRYRHPRDRLWELLFPRTSRVQTFQALENISLQVEPGRTIGIVGRNGAGKSTLLQIVAGTLTPSSGRVKVRGRVAALLELGSGFNPEFTGRQNVFFNGQLLGLTPQEIRDRFAEIVAFAEIGDFLDQPVKTYSSGMMVRLAFSVVAHLDPELLIVDEALAVGDARFQARCMKRIRELKEKGTTILFVSHDANAVRMLCDEAVLLEGGRILERGNPNWVLNHYNQLLGLEDRDNYRPLAQETQQAGLCYVEQAAHPNRHGNGRATISKAWLSGSGLQADKVLQGGDLTLTFQLQIHQDLPDALIGLSIRNLYGVVIYGTNNLQLEKRPKALAAGSSPELSFRWRNQLNAGVYTISIAITSEDCEVYDWIDEALVFEVVNDRFCEGVIDLGADLHWISEFSSPAAIATSRDSLGSTSPSS | not soluble |
| MRLPILLLSILGLSLGFGHDSPSSPAANQYATELADRFFTKFIKAVKYSDVRVMDSLLLSSNENLSSKNMIREFYKYPNTKIHDARFVGRNIATTVFFPLSPHGYDIPFKSADFILKKRFMGDWAITSMENLKYNSGKG | not soluble |
| MVDGFVQPVGEGLADQLVGHQVGYGGVQWDQCLAEVGDVAVVHFFHQAVRQVGFVEQGVEAVVAGEQRRRGEEELLGDLQHRLDPFLDAGFAGHAVGGVEQVRYLFDVGVDEAGEYVFRVLALRLDGAMQVGQAAGYQISQVTVAGFAEVRLLDEFTEGSGVHGVSHTTGMVKKRRNIAGGARRLRRDCHNRFVVMRG | not soluble |
| MEKKTIVLGVIGSDCHAVGNKILDHAFTNAGFNVVNIGVLSPQEVFIKAAIETKADAILLSSLYGQGEIDCKGLRQKCDEAGLEGILLYVGGNIVVGKQHWPDVEKRFKDMGYDRVYAPGTPPEVGIADLKKDLNIE | soluble |
| SYHLDTTAPPPTNLSTLPNNTLFHLWRPRAHILPAEGQIGDPCAHYTDPSTGLFHVGFLHDGDGIAGATTANLATYTDTSDNGSFLIQPGGKNDPVAVFDGAVIPVGVNNTPTLLYTSVSFLPIHWSIPYTRGSETQSLAVARDGGRRFDKLDQGPVIADHPFAVDVTAFRAPFVFRSARLDVLLSLDEEVARNETAVQQAVDGWTEKNAPWYVAVSGGVHGVGPAQFLYRQNGGNASEFQYWEYLGEWWQEATNSSWGDEGTWAGRWGFNFETGNVLFLTEEGHDPQTGEVFVTLGTEGSGLPIVPQVSSIHDMLWAAGEVGVGSEQEGAKVEFSPSMAGFLDWGFSAYAAAGKVLPASSAVSKTSGVEVDRYVSFVWLTGDQYEQADGFPTAQQGWTGSLLLPRELKVQTVENVVDNELVREEGVSWVVGESDNQTATLRTLGITIARETKAALLANGSVTAEEDRTLQTAAVVPFAQSPSSKFFVLTAQLEFPASARSSPLQSGFEILASELERTAIYYQFSNESLVVDRSQTSAAAPTNPGLDSFTESGKLRLFDVIENGQEQVETLDLTVVVDNAVVEVYANGRFALSTWARSWYDNSTQIRFFHNGEGEVQFRNVSVSEGLYNAWPER | soluble |
| MGSDKIHHHHHHMYLLVYGSLRYGFELNHLVAKSRFVGLGYIEGYEMYDLGNYPGVIKGDGIVWGEVYEIDENLIKLLDEVEDYKGSPDDLYVREKTRVYFDQKRKYYLDNVYFYRYNKEIVKNMEKIEDGDYSAWSGMPIIVNYFAYAENTNERILHQRGVDMILSETPAYTKGYRLIFNIPCKYGYCANLIEDESGIICGYLQKVFLHTLNSLDKAEQHLIKYIREVVKVYDRNGKEYFAYAYVSSYKENRKKPSEEYVKIIREGLMRGWGNECVSTGLYDEPGIS | not soluble |
| MAYVTLYPNLILEALGKVRYPGTGKDLVSAGMVEDDIRIDGNKVSFSLIFDKANDPFIKSVVKAAESAILTYISEDVNIKGNISVKSKQAIPAPPAKLLPGVKNIIAVFSGKGGVGKSTVTANLAVSLAKSGYRVGLLDADIFGPSMPKMFHCEESRPVLEEVDGRELIVPEEVMGVKILSIGFFVDPDNAVLWRGSMAGNALTQLIRDANWGELDYFLIDMPPGTSDIHLTLVQTLAITGAVVVTTPQDVALADARKGISMFVGEKINVPVLGLVENMSWFTPAELPQNKYYIFGRDGGKNLAEELNIPLLGQIPLVQGICQSGDEGIPVAVRDDSMMGIAFRELAARVVEQVDYRNEHLDPTKVVEVAHR | not soluble |
| TDLSQRPRRLRKSPALRAMFEETTLSLNDLVLPIFVEEEIDDYKAVEAMPGVMRIPEKHLAREIERIANAGIRSVMTFGISHHTDETGSDAWREDGLVARMSRICKQTVPEMIVMSDTCFCEYTSHGHCGVLKEHGVDNDATLENLGKQAVVAAAAGADFIAPSAAMDGQVQAIRQALDAAGFKDTAIMSYSTKFASSFYGPFREAAGSALKGDRKSYQMNPMNRREAIRESLLDEAQGADCLMVKPAGAYLDIVRELRERTELPIGAYQVSGEYAMIKFAALAGAIDEEKVVLESLGSIKRAGADLIFSYFALDLAEKKILR | soluble |
| AGSMEDIPVEEAVLTGVATDNSEAKITVLGIPDSPGSASAVFRALADAEINIDTVLQNISSLEDNRTDITFTCPRADGPHAMELLRNLQAKNDWQNVLYDDQIGKVSLVGAGMKSHPGVTAEFCEALRDAGVNIELISTSEIRISVLIRESDVDVAARAIHEKFELGGETEAIVYAGTGR | not soluble |
| MRGLLVATWIFVSVAASATPTTTTKSPPPTTTTLSPQILKAKLPPVVKNATWECGTDEFTKSISEGEIQAKCPKLRDHINSCCLQHDGCYEAQSGQKFCDDTFCSCLERRSRSSKSCHDESAPLFCDLVRTFGDGAYEASGPNASTTEESPAEKDDYDYESHVAGLNATPSSST | not soluble |
| MSLADQAIHWLFPTPVLQADLTPTADVALAMDQQLALFDREVFSHPEFSNRNNLTGDLLGKAGLDQLHRLEAFQWLNQQLAVHVDAFLRELLGPNHALEVHIQKAWPVVCARQGGTIEPHTHRNAQLSAVFYVRTEPDNPSGELEFQAADDYFSHVMAIPYRDAAVSGGVFAPQQHRLLLFPSDLRHQVTPYEGASPRYSVSYDLAITTAPGHGREMRMPHPMDWVPLCKPGPAEGHHHHHH | soluble |
| DPDIQSTVEAMLLDRVDALPPKVSMAVLVMDNDSLEVKAYAGSADFTDDSRYAHVDMVRGVRSPGSTLKPFLYALALDEGLIHSESLLLDAPLSFGGYAPGNFQAAFAGPVSVAQALQRSLNVPAVDLLDRVGPARFASVMLAGGVHLRMPAGAVPNLSLILGGGGTTLEELVGAYRALARGGLSGRPRLRASQPRIEARLMSPGAAWIVRDILELGGHPDRPLFQGAAAGRQLAWKTGTSFGFRDAWAVGVTDRYTIGAWVGRPDGTPNPGFFGANVAAPLLQDIVAALPAGAPVPRT | not soluble |
| HHHHHHSSGLVPRGSHMSVKKAGVLGATGSVGQRFILLLSKHPEFEIHALGASSRSAGKKYKDAASWKQTETLPETEQDIVVQECKPEGNFLECDVVFSGLDADVAGDIEKSFVEAGLAVVSNAKNYRREKDVPLVVPIVNPEHIDVVENKVKQAVSKGGKKPGFIICISNCSTAGLVAPLKPLVEKFGPIDALTTTTLQAISGAGFSPGVSGMDILDNIVPYISGEEDKLEWETKKILGGVNAEGTEFVPIPESEMKVSAQCNRVPVIDGHTECISLRFANRPAPSVEDVKQCLREYECAASKLGCHSAPKQTIHVLDQPDRPQPRLDRDRDSGYGVSVGRIREDSLLDFKMVVLSHNTIIGAAGAGILIAEILKAKNII | soluble |

Source: the DeepSol protein solubility set
